By stoichiometry N is commonly meant a count of units in the complex or per binding partner.

The target in the assay is depolymerase enzyme encoded by Klebsiella phage KP36 (depoKP36) (Klebsiella phage KP36). As to the kind of experiment: SEC-MALS; 2 mg of purified, non-aggregated protein on an S200 10/30 column in 200 mM NaCl, 25 mM HEPES, 5% glycerol, pH 7.8; flow 0.5 mL/min. (Size exclusion chromatography separates by hydrodynamic size, large species first.)

Chain of depolymerase enzyme encoded by Klebsiella phage KP36 (depoKP36) (K9L8K6 whole entry): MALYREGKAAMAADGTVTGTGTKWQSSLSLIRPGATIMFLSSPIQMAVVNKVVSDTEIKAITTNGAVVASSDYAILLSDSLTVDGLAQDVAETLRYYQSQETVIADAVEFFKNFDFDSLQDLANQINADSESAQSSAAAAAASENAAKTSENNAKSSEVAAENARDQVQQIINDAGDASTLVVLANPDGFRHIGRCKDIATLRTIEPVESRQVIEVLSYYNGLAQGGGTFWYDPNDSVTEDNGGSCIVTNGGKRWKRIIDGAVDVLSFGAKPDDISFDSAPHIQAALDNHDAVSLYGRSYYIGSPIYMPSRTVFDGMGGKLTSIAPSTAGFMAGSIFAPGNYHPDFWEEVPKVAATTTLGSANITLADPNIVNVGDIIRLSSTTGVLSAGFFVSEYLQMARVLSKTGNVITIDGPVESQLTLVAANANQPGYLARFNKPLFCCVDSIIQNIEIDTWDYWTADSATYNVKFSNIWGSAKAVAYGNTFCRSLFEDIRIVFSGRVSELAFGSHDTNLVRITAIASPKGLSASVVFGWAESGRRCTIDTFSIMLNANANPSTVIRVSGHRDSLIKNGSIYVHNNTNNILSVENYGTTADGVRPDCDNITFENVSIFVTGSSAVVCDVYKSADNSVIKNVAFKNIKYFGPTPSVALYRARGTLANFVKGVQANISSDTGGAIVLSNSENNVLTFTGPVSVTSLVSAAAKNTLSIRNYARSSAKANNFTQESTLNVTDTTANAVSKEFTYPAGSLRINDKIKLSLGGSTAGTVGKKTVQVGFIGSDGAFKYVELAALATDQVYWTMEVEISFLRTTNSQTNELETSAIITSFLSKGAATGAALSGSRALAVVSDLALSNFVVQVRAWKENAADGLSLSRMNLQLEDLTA

“depolymerase enzyme encoded by Klebsiella phage KP36 (depoKP36)”: the stoichiometry N turned out to be 3.

The values are drawn from article PMC5192385.
